B1: PRPH (parent)
chain: RTFGPPPSLSPGAFSYSSSSRFSS
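Further: lentivirally expressed fusions sorted by FACS into six bins by GFP to DsRed ratio, PSI derived from sequencing read proportions per bin multiplied by bin number.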

The variants in this data set derive from B1. The data set can be described thus: protein stability index of a GFP-peptide fusion (GPS, HEK-293T) (PSI 1-6); higher = more stable. The note with it: c terminus: a fixed tail appended.
As for RTFGPPPSLSPSAFSYSSSSRFSS [G12S], the protein stability index was determined as 3.42.
The same measure for RTFGPPPSLSPFAFSYSSSSRFSS [G12F]: 2.16; for RTFGPPPSLSPLAFSYSSSSRFSS [G12L]: 2.47; for RTFGPPPSLSPKAFSYSSSSRFSS [G12K]: 3.21.
Take RTFGPPPSLSPIAFSYSSSSRFSS [G12I]: the protein stability index was 3.05.
The figure for RTFGPPPSLSPYAFSYSSSSRFSS [G12Y] is 2.93.
The figure for RTFGPPPSLSPWAFSYSSSSRFSS [G12W] is 2.25.
The same measure for RTFGPPPSLSPCAFSYSSSSRFSS [G12C]: 1.96.
RTFGPPPSLSPRAFSYSSSSRFSS [G12R]: the protein stability index is 3.35.
The same measure for RTFGPPPSLSPVAFSYSSSSRFSS [G12V]: 3.36; for RTFGPPPSLSPMAFSYSSSSRFSS [G12M]: 2.89.
The figure for RTFGPPPSLSPTAFSYSSSSRFSS [G12T] is 3.31.
In the case of RTFGPPPSLSPDAFSYSSSSRFSS [G12D], the protein stability index turned out to be 3.24.
The same measure for RTFGPPPSLSPEAFSYSSSSRFSS [G12E]: 3.27; for RTFGPPPSSSPGAFSYSSSSRFSS [L9S]: 3.8.
The figure for RTFGPPPSQSPGAFSYSSSSRFSS [L9Q] is 3.76; for RTFGPPPSDSPGAFSYSSSSRFSS [L9D] it is 3.61.
The figure for RTFGPPPSKSPGAFSYSSSSRFSS [L9K] is 3.8; for RTFGPPPSGSPGAFSYSSSSRFSS [L9G] it is 3.64.
Consider RTFGPPPSRSPGAFSYSSSSRFSS [L9R], for which the protein stability index was 4.05.
The same measure for RTFGPPPSESPGAFSYSSSSRFSS [L9E]: 3.44; for RTFGPPPSYSPGAFSYSSSSRFSS [L9Y]: 2.94.
With RTFGPPPSVSPGAFSYSSSSRFSS [L9V], the protein stability index amounted to 3.31.
The same measure for RTFGPPPSFSPGAFSYSSSSRFSS [L9F]: 3.39; for RTFGPPPSASPGAFSYSSSSRFSS [L9A]: 3.52; for RTFGPPPSHSPGAFSYSSSSRFSS [L9H]: 3.54.
The same measure for RTFGPPPSNSPGAFSYSSSSRFSS [L9N]: 3.42; for RTFGPPPSWSPGAFSYSSSSRFSS [L9W]: 3.09; for RTFGPPPSCSPGAFSYSSSSRFSS [L9C]: 2.71.
The same measure for RTFGPPPSTSPGAFSYSSSSRFSS [L9T]: 3.7; for RTFGPPWSLSPGAFSYSSSSRFSS [P7W]: 2.08; for RTFGPPVSLSPGAFSYSSSSRFSS [P7V]: 2.86.
Turning to RTFGPPGSLSPGAFSYSSSSRFSS [P7G], the protein stability index came to 2.92.
The figure for RTFGPPCSLSPGAFSYSSSSRFSS [P7C] is 1.6.
The figure for RTFGPPYSLSPGAFSYSSSSRFSS [P7Y] is 2.12; for RTFGPPDSLSPGAFSYSSSSRFSS [P7D] it is 3.45; for RTFGPPKSLSPGAFSYSSSSRFSS [P7K] it is 3.71.
As for RTFGPPASLSPGAFSYSSSSRFSS [P7A], the protein stability index stood at 3.22.
The figure for RTFGPPNSLSPGAFSYSSSSRFSS [P7N] is 3.02.
In the case of RTFGPPHSLSPGAFSYSSSSRFSS [P7H], the protein stability index worked out at 3.15.
For RTFGPPFSLSPGAFSYSSSSRFSS [P7F], the protein stability index stood at 2.34.
The figure for RTFGPPLSLSPGAFSYSSSSRFSS [P7L] is 2.71; for RTFGPPISLSPGAFSYSSSSRFSS [P7I] it is 2.53.
The figure for RTFGPPTSLSPGAFSYSSSSRFSS [P7T] is 3.56; for RTFGPPRSLSPGAFSYSSSSRFSS [P7R] it is 2.93.
The figure for RTFGPPQSLSPGAFSYSSSSRFSS [P7Q] is 3.13; for RTFGPPMSLSPGAFSYSSSSRFSS [P7M] it is 2.77.
On to RTFGPPSSLSPGAFSYSSSSRFSS [P7S], for which the protein stability index was found to be 3.26.
The same measure for RTFGPPESLSPGAFSYSSSSRFSS [P7E]: 2.89.
As for RTFGPRPSLSPGAFSYSSSSRFSS [P6R], the protein stability index is 3.02.
The figure for RTFGPWPSLSPGAFSYSSSSRFSS [P6W] is 2.01; for RTFGPSPSLSPGAFSYSSSSRFSS [P6S] it is 3.37.
The figure for RTFGPVPSLSPGAFSYSSSSRFSS [P6V] is 3.05.
On to RTFGPLPSLSPGAFSYSSSSRFSS [P6L], for which the protein stability index came to 2.95.
The figure for RTFGPYPSLSPGAFSYSSSSRFSS [P6Y] is 2.11; for RTFGPIPSLSPGAFSYSSSSRFSS [P6I] it is 2.9.
The same measure for RTFGPMPSLSPGAFSYSSSSRFSS [P6M]: 2.8; for RTFGPNPSLSPGAFSYSSSSRFSS [P6N]: 3.1; for RTFGPEPSLSPGAFSYSSSSRFSS [P6E]: 2.83.
The figure for RTFGPTPSLSPGAFSYSSSSRFSS [P6T] is 2.71; for RTFGPKPSLSPGAFSYSSSSRFSS [P6K] it is 3.25.
On to RTFGPGPSLSPGAFSYSSSSRFSS [P6G], for which the protein stability index stood at 3.02.
The same measure for RTFGPHPSLSPGAFSYSSSSRFSS [P6H]: 2.79.
The figure for RTFGPQPSLSPGAFSYSSSSRFSS [P6Q] is 3.03.
The same measure for RTFGPFPSLSPGAFSYSSSSRFSS [P6F]: 2.15.
Consider RTFGPPPSLSPGAFSFSSSSRFSS [Y16F], for which the protein stability index was found to be 2.99.
The figure for RTFGPPPSLSPGAFSTSSSSRFSS [Y16T] is 3.64.
Regarding RTFGPPPSLSPGAFSDSSSSRFSS [Y16D], the protein stability index is 3.9.
The figure for RTFGPPPSLSPGAFSESSSSRFSS [Y16E] is 3.98; for RTFGPPPSLSPGAFSISSSSRFSS [Y16I] it is 3.31.
The same measure for RTFGPPPSLSPGAFSCSSSSRFSS [Y16C]: 3.18; for RTFGPPPSLSPGAFSVSSSSRFSS [Y16V]: 3.69; for RTFGPPPSLSPGAFSLSSSSRFSS [Y16L]: 3.95.
The figure for RTFGPPPSLSPGAFSGSSSSRFSS [Y16G] is 4.28.
For RTFGPPPSLSPGAFSSSSSSRFSS [Y16S], the protein stability index worked out at 3.86.
The figure for RTFGPPPSLSPGAFSKSSSSRFSS [Y16K] is 3.66; for RTFGPPPSLSPGAFSPSSSSRFSS [Y16P] it is 4.1.
The figure for RTFGPPPSLSPGAFSRSSSSRFSS [Y16R] is 3.92; for RTFGPPPSLSPGAFSWSSSSRFSS [Y16W] it is 3.36; for RTFGPPPSLSPGAFSHSSSSRFSS [Y16H] it is 4.04.
The figure for RTFGPPPSLSPGAFSASSSSRFSS [Y16A] is 3.81; for RTFGPPPSLSPGAFSQSSSSRFSS [Y16Q] it is 3.62; for RTFGPPPGLSPGAFSYSSSSRFSS [S8G] it is 2.68.
RTFGPPPRLSPGAFSYSSSSRFSS [S8R]: the protein stability index came to 3.83.
The figure for RTFGPPPLLSPGAFSYSSSSRFSS [S8L] is 3.14; for RTFGPPPDLSPGAFSYSSSSRFSS [S8D] it is 3.04; for RTFGPPPCLSPGAFSYSSSSRFSS [S8C] it is 3.04.
The same measure for RTFGPPPKLSPGAFSYSSSSRFSS [S8K]: 2.58; for RTFGPPPNLSPGAFSYSSSSRFSS [S8N]: 3.5; for RTFGPPPMLSPGAFSYSSSSRFSS [S8M]: 2.93.
Consider RTFGPPPILSPGAFSYSSSSRFSS [S8I], for which the protein stability index was 2.78.
The same measure for RTFGPPPVLSPGAFSYSSSSRFSS [S8V]: 2.59; for RTFGPPPWLSPGAFSYSSSSRFSS [S8W]: 2.75.
In the case of RTFGPPPELSPGAFSYSSSSRFSS [S8E], the protein stability index was found to be 3.49.

The values are drawn from the supplement of paper PMC10567573.
